In doi:10.1101/509299 (bioRxiv, 2019):

Target: integrin αIIbβ3 on K562 cells stably expressing recombinant αIIbβ3 (αIIbβ3-K562) (UniProt P08514 32-1039; P05106 27-788)
Experiment: flow cytometry on cells

B1: Eptifibatide (peptide)
chain: RGDWPC
modifications: homoarginine (Har) at position 2
IC50: 73.2 nM
